Consider 2 molecules from US20210238276A1 (INTEGRAL MOLECULAR, published 2021).

One experiment concerns the target T1, mouse GLUT4 (mmGLUT4) (mouse, UniProt P14142 1-509).
T1 construct: whole, on cells; Also tested as endogenous protein in murine 3T3-L1 adipocytes; also called endogenous GLUT4 of 3T3-L1 adipocytes
T1 sequence (looked up): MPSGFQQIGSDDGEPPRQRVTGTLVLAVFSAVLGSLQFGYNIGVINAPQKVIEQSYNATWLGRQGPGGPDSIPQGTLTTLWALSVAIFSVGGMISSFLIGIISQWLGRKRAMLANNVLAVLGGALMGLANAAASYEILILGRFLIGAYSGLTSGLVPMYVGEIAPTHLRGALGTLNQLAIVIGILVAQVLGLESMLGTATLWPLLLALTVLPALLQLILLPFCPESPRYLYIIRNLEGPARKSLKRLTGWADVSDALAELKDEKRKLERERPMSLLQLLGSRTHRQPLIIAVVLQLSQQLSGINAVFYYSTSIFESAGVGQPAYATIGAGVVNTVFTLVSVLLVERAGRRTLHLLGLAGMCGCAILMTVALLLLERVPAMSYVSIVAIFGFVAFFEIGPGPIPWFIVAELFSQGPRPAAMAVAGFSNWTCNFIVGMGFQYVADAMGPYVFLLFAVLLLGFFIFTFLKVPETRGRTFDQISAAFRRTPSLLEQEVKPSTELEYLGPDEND
The experiment can be described thus: immunofluorescence, permeabilized 3T3-L1 adipocytes (data not shown). As to the method: Adipocytes, between 7-8 days post-differentiation, were serum-starved for 3 hours in Dulbecco's modified Eagle's medium with […] bicarbonate and 20 mM HEPES pH 7.4, prior to stimulation for 20 minutes at 37° C. with or without 170 nM human insulin (Sigma Aldrich) prepared in the same media with 2% BSA. Adipocytes were washed twice with ice-cold PBS with calcium and magnesium (PBS+/+) and remained on ice for all subsequent steps.
Adipocytes were blocked with 10% Normal Goat Serum (NGS) in PBS+/+ for 30 minutes on ice before adding test antibodies at 10 ug/ml in 10% NGS. Primary antibodies were incubated for 2 hours, then washed 2× with PBS+/+. Cells were subsequently fixed for 5 minutes in 4% paraformaldehyde (PFA), washed 2× with PBS+/+, and then stained with secondary antibody (AF488 conjugated Goat anti-human, Jackson Immunoresearch) diluted 1:200 in 10% NGS. Secondary antibody was incubated for 1 hour, after washing 3× with PBS+/+. For intracellular staining, cells were fixed prior to the blocking step and permeabilized with 10% NGS containing 0.2% Saponin. The 1F8 antibody was used at 1 μg/ml, and detected using AF647-conjugated goat anti-mouse secondary antibody diluted 1:400 (Jackson Immunoresearch). Alexafluor 488 was visualized using the B-2EC cube with an exposure time of 1.5 seconds. Alexafluor 647 was visualized using the Cy5 cube with an exposure time of 2 seconds.

The target of another experiment is T2, mouse GLUT1 (mmGLUT1) (mouse, UniProt P17809 1-492).
T2 construct: whole, on cells
T2 sequence (looked up): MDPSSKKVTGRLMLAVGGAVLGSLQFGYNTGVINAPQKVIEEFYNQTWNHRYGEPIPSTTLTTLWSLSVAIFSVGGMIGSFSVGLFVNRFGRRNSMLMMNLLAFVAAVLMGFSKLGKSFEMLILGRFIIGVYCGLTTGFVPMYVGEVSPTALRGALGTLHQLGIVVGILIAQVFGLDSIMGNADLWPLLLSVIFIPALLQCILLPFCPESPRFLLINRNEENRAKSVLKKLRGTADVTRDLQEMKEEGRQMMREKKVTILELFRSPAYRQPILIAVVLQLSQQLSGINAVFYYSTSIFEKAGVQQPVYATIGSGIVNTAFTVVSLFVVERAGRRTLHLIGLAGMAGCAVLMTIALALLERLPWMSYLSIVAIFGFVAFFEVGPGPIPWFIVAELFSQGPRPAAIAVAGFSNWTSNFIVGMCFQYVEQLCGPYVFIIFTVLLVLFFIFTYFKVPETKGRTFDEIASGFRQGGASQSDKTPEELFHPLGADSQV
The experiment can be described thus: flow cytometry, permeabilized transfected HEK-293T. The protocol:
(§1) HEK-293T cells were transfected by CaPO₄ with plasmids in 6-well culture plates (Falcon) at 750,000 cells/well. At 48 hours post transfection, cells were stained with anti-V5 and anti-GLUT4 MAbs (purified scFv, 2 μg/ml) followed by biotinylated goat anti-mouse or human antibody (1:500) and streptavidin-PerCP (1:500). Fluorescence was detected using an Intellicyt high-throughput flow cytometer (HTFC; Intellicyt, Albuquerque, N. Mex.). For cell permeabilization, cells were treated with saponin at 0.1% in PBS for 20 minutes. To discriminate intact (live) and permeabilized (dead) cells without the use of detergent, propidium iodide (PI) was added to HEK-293T cells at 1 ug/ml just prior to flow cytometry. Where indicated, cytochalasin B (Sigma) was used at a final concentration of 10 uM and phloretin (Sigma) was used at a final concentration of 100 uM, each added in 10% NGS for 30 minutes prior to antibody staining as well as included with the primary antibody.
For orientation: In flow cytometry, cells or beads pass a laser one at a time.

A further experiment concerns the target T3, human GLUT1 (hsGLUT1) (human, UniProt P11166 1-492).
T3 construct: whole, on cells
T3 sequence (looked up): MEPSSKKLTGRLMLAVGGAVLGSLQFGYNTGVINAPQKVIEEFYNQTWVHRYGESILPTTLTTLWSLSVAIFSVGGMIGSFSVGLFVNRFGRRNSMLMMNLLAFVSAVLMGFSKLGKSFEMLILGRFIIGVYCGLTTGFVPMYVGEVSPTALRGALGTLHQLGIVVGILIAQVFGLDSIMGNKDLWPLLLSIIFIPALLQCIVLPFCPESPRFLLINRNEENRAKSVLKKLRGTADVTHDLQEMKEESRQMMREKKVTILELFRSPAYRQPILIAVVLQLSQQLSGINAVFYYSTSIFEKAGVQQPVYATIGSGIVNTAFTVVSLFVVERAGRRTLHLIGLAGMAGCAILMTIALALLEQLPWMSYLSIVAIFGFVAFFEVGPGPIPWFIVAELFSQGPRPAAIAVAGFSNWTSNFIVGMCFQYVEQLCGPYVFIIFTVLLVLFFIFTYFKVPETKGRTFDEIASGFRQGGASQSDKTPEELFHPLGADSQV
The experiment can be described thus: flow cytometry, permeabilized transfected HEK-293T. As to the method: as §1

B1: AB111 (Fc fusion)
scFv: ALTQPSSVSANPGETVKITCSGSGSWYGWFQQKSPGSAPVTVIYSNDKRPSDIPSRFSGSKSGSTSTLTITGVQVEDEAVYYCGNWDIFGAGTTLTVLGQSSRSSGGGGSSGGGGSAVTLDESGGGLQTPGGALSLVCKASGFTFSSHGMGWVRQAPGKGLEWVASISTGRYTFYAPAVKGRATISRDNGQSTVRLQLNNLRAEDTATYYCTKCAGLNGCGGGEIDAWGHGTEVIVSS
notes: Bivalent scFv-Fc; also called MAb AB111; not shown: Fc fragment of human IgG1, cloned in frame with the scFv
B1: the binding result with mouse GLUT4 (mmGLUT4) is “binds”.

B2: AB102 (Fc fusion)
scFv: ALTQPSSVSANLGGTVKITCSGGGSYGYGWYQQKSPGSAPVTVIYSNDQRPSDIPSRFSGSKSGSTATLTITGVRAEDEAIYYCGSTDSDYVGIFGAGTTLTVLGQSSRSSGGGGSSGGGGSAVTLDESGGGLQTPGGTLSLVCKASGFDFSSYATIWVRQAPGKGLEWVAGISGTGTGSSTGYAPAVKGRATISRDNGQSTVRLQLNNLRAEDTGSYFCAKSTGYGDSWIYPDSIDAWGHGTEVIVSS
notes: also called MAb AB102; not shown: Fc fragment of human IgG1, cloned in frame with the scFv
With B2, the binding result with mouse GLUT4 (mmGLUT4), in the experiment with mouse GLUT1 (mmGLUT1) and in the experiment with human GLUT1 (hsGLUT1) was “binds” throughout.
